The target in experiment [1] is T1, human LDCAM, full length membrane-bound, expressed on transfected or transduced cells (human, UniProt Q9BY67 39-442).
T1 construct: also called B7L-1 counter receptor; Igsf4
T1 sequence: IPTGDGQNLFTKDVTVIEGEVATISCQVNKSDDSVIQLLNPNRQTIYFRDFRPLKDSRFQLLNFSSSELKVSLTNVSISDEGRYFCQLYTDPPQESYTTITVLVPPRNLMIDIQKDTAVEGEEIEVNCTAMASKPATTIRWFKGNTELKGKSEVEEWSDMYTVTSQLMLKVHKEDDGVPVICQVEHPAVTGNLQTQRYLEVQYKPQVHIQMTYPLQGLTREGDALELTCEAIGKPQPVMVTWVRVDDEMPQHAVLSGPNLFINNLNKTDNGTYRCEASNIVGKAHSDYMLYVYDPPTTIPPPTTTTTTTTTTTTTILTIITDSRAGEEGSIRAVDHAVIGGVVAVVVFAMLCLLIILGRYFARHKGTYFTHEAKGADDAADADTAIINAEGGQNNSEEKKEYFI
The experiment can be described thus: flow cytometry on EL4 cells transduced with human LDCAM (legend of FIG. 15). A general note: Flow cytometry measures light scatter and fluorescence of single cells or particles in a stream.

Experiment [2] has as its target T2, human Necl1 expressed on transduced EL4 cells (human, UniProt Q8N126 25-398).
T2 construct: whole, on cells
T2 sequence (looked up): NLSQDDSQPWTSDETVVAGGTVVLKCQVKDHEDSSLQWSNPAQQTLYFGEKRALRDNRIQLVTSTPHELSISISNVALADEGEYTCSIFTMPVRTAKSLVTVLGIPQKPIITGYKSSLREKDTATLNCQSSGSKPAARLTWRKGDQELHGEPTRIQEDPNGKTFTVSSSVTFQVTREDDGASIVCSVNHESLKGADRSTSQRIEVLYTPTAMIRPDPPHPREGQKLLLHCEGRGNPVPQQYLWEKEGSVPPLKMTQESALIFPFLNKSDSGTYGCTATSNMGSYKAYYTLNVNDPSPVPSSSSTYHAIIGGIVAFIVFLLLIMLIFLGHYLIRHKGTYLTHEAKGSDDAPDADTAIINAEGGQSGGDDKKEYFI
The experiment can be described thus: flow cytometry on transduced EL4 cells.

B1: soluble recombinant human CRTAM-Fc (Fc fusion)
chain: SLTNHTETITVEEGQTLTLKCVTSLRKNSSLQWLTPSGFTIFLNEYPALKNSKYQLLHHSANQLSITVPNVTLQDEGVYKCLHYSDSVSTKEVKVIVLATPFKPILEASVIRKQNGEEHVVLMCSTMRSKPPPQITWLLGNSMEVSGGTLHEFETDGKKCNTTSTLIILSYGKNSTVDCIIRHRGLQGRKLVAPFRFEDLVTDEETASDALERNSLSTQDPQQPTSTVSVTEDSSTSEIDKEEKEQTTQDPDLTTEANPQYLGLARKKSG
notes: also called huCRTAM-Fc; not shown: Fc part not described
As for B1, the binding result in experiment [1] is recorded as “binds”; in experiment [2] it was “no binding”.

These data come from patent publication US7267960 (Amgen, dated 2007).
